Earlier results in article doi:10.1101/2024.09.16.613101.

Columns and labels:
His57 = His57 (UniProt position 57, VVTAAHCGVTT); details: not stated (the structure used for prediction is described as the apoenzyme)
Cys46 = Cys46 (UniProt position 47, DFTFVCPTELG)
Glu28 = Glu28 (UniProt position 54, GYQLHEDGETV); test: NMR; details: native (folded) state, according to the title of ref 70; ligand state not stated
Glu58 = Glu58 (UniProt position 84, SSPYYEWPILS); test: NMR; details: native (folded) state, according to the title of ref 70; ligand state not stated
His27 = His27 (UniProt position 53, AGYQLHEDGET); test: NMR; details: native (folded) state, according to the title of ref 70; ligand state not stated
His40 = His40 (UniProt position 66, SNSYPHKYNNY); test: NMR; details: native (folded) state, according to the title of ref 70; ligand state not stated
His92 = His92 (UniProt position 118, AGVITHTGASG); test: NMR; details: native (folded) state, according to the title of ref 70; ligand state not stated

Substance: chymotrypsin
- pKa (His57): 7.5

Substance: peroxiredoxin AhpC (alkyl hydroperoxide reductase subunit C) (bacterial (species not stated in the article))
- pKa (Cys46): 5.94

Substance: ribonuclease T1 (Aspergillus oryzae (not stated in the article; inferred))
- pKa (Glu28): 5.61
- pKa (Glu58): 3.96
- pKa (His27): 7.57
- pKa (His40): 7.44
- pKa (His92): 7.31
